How the values were obtained:
[1] = biological target: Native rat insulin degrading enzyme (rIDE, insulysin), wild type, residues 42-1019 (rat) (UniProt P35559)
[2] = biological target: the molecule itself; experiment: crystal structure; wild type rIDE and rIDE-E111F, no substrate peptide added; enzyme at 8 mg/ml in 50 mM Tris 7.4, 1 mM DTT, 100 mM NaCl; sitting drop, 100 mM sodium citrate pH 6.5, 100 mM ammonium acetate, 20% PEG 4000, 20 or 22°C; space group C2, one molecule per asymmetric unit

bradykinin (from UniProt P01042 381-389) (peptide)
enzyme activity: activation by bradykinin of hydrolysis of 10 µM Abz-…-EDDnp [1]: 4 fold

B1: Native rat insulin degrading enzyme (rIDE, insulysin), wild type, residues 42-1019 (enzyme, UniProt P35559 42-1019, looked up)
chain: MNNPAIQRIEDHIVKSPEDKREYRGLELANGIKVLLISDPTTDKSSAALDVHIGSLSDPPNIPGLSHFCEHMLFLGTKKYPKENEYSQFLSEHAGSSNAFTSGEHTNYYFDVSHEHLEGALDRFAQFFLCPLFDASCKDREVNAVDSEHEKNVMNDAWRLFQLEKATGNPKHPFSKFGTGNKYTLETRPNQEGIDVREELLKFHSTYYSSNLMAICVLGRESLDDLTNLVVKLFSEVENKNVPLPEFPEHPFQEEHLKQLYKIVPIKDIRNLYVTFPIPDLQQYYKSNPGHYLGHLIGHEGPGSLLSELKSKGWVNTLVGGQKEGARGFMFFIINVDLTEEGLLHVEDIILHMFQYIQKLRAEGPQEWVFQECKDLNAVAFRFKDKERPRGYTSKIAGKLHYYPLNGVLTAEYLLEEFRPDLIDMVLDKLRPENVRVAIVSKSFEGKTDRTEQWYGTQYKQEAIPEDVIQKWQNADLNGKFKLPTKNEFIPTNFEILALEKDATPYPALIKDTAMSKLWFKQDDKFFLPKACLNFEFFSPFAYVDPLHCNMAYLYLELLKDSLNEYAYAAELAGLSYDLQNTIYGMYLSVKGYNDKQPILLKKITEKMATFEIDKKRFEIIKEAYMRSLNNFRAEQPHQHAMYYLRLLMTEVAWTKDELKEALDDVTLPRLKAFIPQLLSRLHIEALLHGNITKQAALGVMQMVEDTLIEHAHTKPLLPSQLVRYREVQLPDRGWFVYQRRNEVHNNCGIEIYYQTDMQSTSENMFLELFCQIISEPCFNTLRTKEQLGYIVFSGPRRANGIQGLRFIIQSEKPPHYLESRVEAFLITMEKAIEDMTEEAFQKHIQALAIRRLDKPKKLSAECAKYWGEIISQQYNYDRDNIEVAYLKTLSKDDIIKFYKEMLAVDAPRRHKVSVHVLAREMDSCPVVGEFPSQNDINLSEAPPLPQPEVIHNMTEFKRGLPLFPLVKPHINFMAAKL
notes: Insulin-degrading enzyme (insulysin, EC 3.4.24.56), rat; begins at methionine 42 and extends through the native C-terminal residue leucine 1019 (the same paragraph also prints 'residues 42-1016'); In the crystal there is one molecule per asymmetric unit, and the dimer is formed by crystal symmetry; Expressed from pFastBac HTb; The model contains residues 42-963 and 980-1011; also called wild type …
binding result [2]: binds

B2: rat insulin degrading enzyme E111F mutant (rIDE-E111F), residues 42-1019 (enzyme, UniProt P35559 42-1019, looked up)
chain: MNNPAIQRIEDHIVKSPEDKREYRGLELANGIKVLLISDPTTDKSSAALDVHIGSLSDPPNIPGLSHFCFHMLFLGTKKYPKENEYSQFLSEHAGSSNAFTSGEHTNYYFDVSHEHLEGALDRFAQFFLCPLFDASCKDREVNAVDSEHEKNVMNDAWRLFQLEKATGNPKHPFSKFGTGNKYTLETRPNQEGIDVREELLKFHSTYYSSNLMAICVLGRESLDDLTNLVVKLFSEVENKNVPLPEFPEHPFQEEHLKQLYKIVPIKDIRNLYVTFPIPDLQQYYKSNPGHYLGHLIGHEGPGSLLSELKSKGWVNTLVGGQKEGARGFMFFIINVDLTEEGLLHVEDIILHMFQYIQKLRAEGPQEWVFQECKDLNAVAFRFKDKERPRGYTSKIAGKLHYYPLNGVLTAEYLLEEFRPDLIDMVLDKLRPENVRVAIVSKSFEGKTDRTEQWYGTQYKQEAIPEDVIQKWQNADLNGKFKLPTKNEFIPTNFEILALEKDATPYPALIKDTAMSKLWFKQDDKFFLPKACLNFEFFSPFAYVDPLHCNMAYLYLELLKDSLNEYAYAAELAGLSYDLQNTIYGMYLSVKGYNDKQPILLKKITEKMATFEIDKKRFEIIKEAYMRSLNNFRAEQPHQHAMYYLRLLMTEVAWTKDELKEALDDVTLPRLKAFIPQLLSRLHIEALLHGNITKQAALGVMQMVEDTLIEHAHTKPLLPSQLVRYREVQLPDRGWFVYQRRNEVHNNCGIEIYYQTDMQSTSENMFLELFCQIISEPCFNTLRTKEQLGYIVFSGPRRANGIQGLRFIIQSEKPPHYLESRVEAFLITMEKAIEDMTEEAFQKHIQALAIRRLDKPKKLSAECAKYWGEIISQQYNYDRDNIEVAYLKTLSKDDIIKFYKEMLAVDAPRRHKVSVHVLAREMDSCPVVGEFPSQNDINLSEAPPLPQPEVIHNMTEFKRGLPLFPLVKPHINFMAAKL
notes: Insulin-degrading enzyme (insulysin), rat; begins at methionine 42 and extends through leucine 1019; catalytically compromised E111F mutant; No zinc ion in the crystal structure; The model contains residues 42-965 and 978-1011; also called E111F-rIDE; E111F IDE mutant; not shown: His6, N-terminal, cleaved
binding result [2]: binds

From publication PMC3123307, “Identification of the Allosteric Regulatory Site of Insulysin” (PLoS ONE, 2011)
